In article PMC9482650, “Quantitative fragmentomics allow affinity mapping of interactomes” (Nature Communications, 2022):

T1: PDZD2_2, O15018
T1 sequence (O15018 329-429, limits assumed, looked up): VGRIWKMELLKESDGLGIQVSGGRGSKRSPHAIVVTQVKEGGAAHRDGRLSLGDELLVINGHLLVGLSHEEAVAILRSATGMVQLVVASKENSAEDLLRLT

T2: APBA1_1, Q02410
T2 sequence (Q02410 651-752, limits assumed, looked up): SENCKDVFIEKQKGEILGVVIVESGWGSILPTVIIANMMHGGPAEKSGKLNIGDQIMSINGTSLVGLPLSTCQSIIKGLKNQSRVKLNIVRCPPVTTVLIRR

T3: APBA1_2, Q02410
T3 sequence (Q02410 742-832, limits assumed, looked up): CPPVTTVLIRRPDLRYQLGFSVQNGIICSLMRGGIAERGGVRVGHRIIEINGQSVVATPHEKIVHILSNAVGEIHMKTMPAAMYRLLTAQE

T4: MPDZ_12, O75970
T4 sequence (O75970 1857-1958, limits assumed, looked up): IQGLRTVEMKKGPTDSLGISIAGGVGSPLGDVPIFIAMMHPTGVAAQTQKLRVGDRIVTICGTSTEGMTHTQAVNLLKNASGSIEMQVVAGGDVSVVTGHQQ

T5: LNX2_3, Q8N448
T5 sequence (Q8N448 463-564, limits assumed, looked up): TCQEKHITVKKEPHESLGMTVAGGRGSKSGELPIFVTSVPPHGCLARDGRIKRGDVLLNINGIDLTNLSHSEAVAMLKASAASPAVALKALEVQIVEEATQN

T6: SNTG2, Q9NY99
T6 sequence (Q9NY99 68-166, limits assumed, looked up): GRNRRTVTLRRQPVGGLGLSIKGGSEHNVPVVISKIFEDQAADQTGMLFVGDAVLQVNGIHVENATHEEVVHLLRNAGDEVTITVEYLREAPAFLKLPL

T7: DVL3, Q92997
T7 sequence (Q92997 244-331, limits assumed, looked up): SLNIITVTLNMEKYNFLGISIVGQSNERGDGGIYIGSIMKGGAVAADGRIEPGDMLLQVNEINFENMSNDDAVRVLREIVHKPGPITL

T8: NHERF3_4, Q5T2W1
T8 sequence (Q5T2W1 373-468, limits assumed, looked up): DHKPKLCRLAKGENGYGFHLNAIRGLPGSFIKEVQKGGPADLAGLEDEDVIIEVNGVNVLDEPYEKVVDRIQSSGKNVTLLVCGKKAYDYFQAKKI

T9: GRIP1_5, Q9Y3R0
T9 sequence (Q9Y3R0 568-668, limits assumed, looked up): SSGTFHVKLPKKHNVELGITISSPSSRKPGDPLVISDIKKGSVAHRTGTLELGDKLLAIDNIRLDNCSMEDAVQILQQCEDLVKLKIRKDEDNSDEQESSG

T10: SNTG1, Q9NSN8
T10 sequence (Q9NSN8 52-150, limits assumed, looked up): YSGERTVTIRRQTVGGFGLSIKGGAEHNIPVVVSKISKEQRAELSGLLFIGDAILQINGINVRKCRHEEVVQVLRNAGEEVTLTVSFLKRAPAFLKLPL

T11: LIN7C, Q9NUP9
T11 sequence (Q9NUP9 88-185, limits assumed, looked up): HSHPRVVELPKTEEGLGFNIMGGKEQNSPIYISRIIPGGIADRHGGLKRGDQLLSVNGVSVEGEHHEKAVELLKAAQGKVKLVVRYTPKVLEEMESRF


How the values were obtained:
Test in all cases: holdup assay
Set-up in all cases: key: below the threshold = too weak to quantify, mostly under pKd 3.1 to 4
Details in all cases: plain residues with an end cap or a label only (N-terminal biotin on a linker: ado-ado)
[1] = target: DLG4_3, P78352
Chain of DLG4_3, P78352 (P78352 306-403): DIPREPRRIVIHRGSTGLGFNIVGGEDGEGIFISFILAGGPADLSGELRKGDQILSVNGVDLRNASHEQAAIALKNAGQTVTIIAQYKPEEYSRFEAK

[2] = target: GRIP2_7, Q9C0E4
Chain of GRIP2_7, Q9C0E4 (Q9C0E4 934-1023): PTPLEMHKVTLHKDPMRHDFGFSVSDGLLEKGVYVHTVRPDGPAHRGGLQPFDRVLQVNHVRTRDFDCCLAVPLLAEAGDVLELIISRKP

[3] = target: T1, PDZD2_2, O15018
[4] = target: T2, APBA1_1, Q02410
[5] = target: GIPC2, Q8TF65
Chain of GIPC2, Q8TF65 (Q8TF65 112-203): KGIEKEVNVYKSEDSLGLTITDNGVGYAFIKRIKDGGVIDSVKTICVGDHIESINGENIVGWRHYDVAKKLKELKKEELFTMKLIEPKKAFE

[6] = target: GRIP2_4, Q9C0E4
Chain of GRIP2_4, Q9C0E4 (Q9C0E4 446-548): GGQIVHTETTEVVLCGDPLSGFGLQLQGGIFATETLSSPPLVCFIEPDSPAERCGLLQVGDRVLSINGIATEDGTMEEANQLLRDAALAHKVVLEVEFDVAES

[7] = target: T3, APBA1_2, Q02410
[8] = target: IL16_3, Q14005
Chain of IL16_3, Q14005 (Q14005 1107-1207): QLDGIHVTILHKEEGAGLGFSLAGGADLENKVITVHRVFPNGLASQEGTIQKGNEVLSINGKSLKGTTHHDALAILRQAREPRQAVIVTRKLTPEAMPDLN

[9] = target: T4, MPDZ_12, O75970
[10] = target: DLG1_1, Q12959
[11] = target: MAST2, Q6P0Q8
Chain of MAST2, Q6P0Q8 (Q6P0Q8 1099-1202): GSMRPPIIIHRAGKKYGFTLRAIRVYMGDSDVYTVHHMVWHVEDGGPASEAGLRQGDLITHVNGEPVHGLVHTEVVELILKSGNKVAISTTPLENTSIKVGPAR

[12] = target: T5, LNX2_3, Q8N448
[13] = target: SCRIB_2, Q14160
Chain of SCRIB_2, Q14160 (Q14160 857-960): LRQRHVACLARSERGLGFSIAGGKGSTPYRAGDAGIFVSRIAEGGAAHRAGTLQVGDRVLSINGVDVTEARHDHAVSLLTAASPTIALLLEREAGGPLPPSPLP

[14] = target: T6, SNTG2, Q9NY99
[15] = target: T7, DVL3, Q92997
[16] = target: FRMPD2_1, Q68DX3
Chain of FRMPD2_1, Q68DX3 (Q68DX3 770-861): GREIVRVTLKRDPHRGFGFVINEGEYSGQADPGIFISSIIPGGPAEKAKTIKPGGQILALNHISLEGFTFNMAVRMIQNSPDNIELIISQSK

[17] = target: Inadl_8, Q8NI35
Chain of Inadl_8, Q8NI35 (Q8NI35 1425-1530): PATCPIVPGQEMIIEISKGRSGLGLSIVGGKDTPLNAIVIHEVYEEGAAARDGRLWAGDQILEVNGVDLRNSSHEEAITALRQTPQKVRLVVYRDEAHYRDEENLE

[18] = target: DLG4_1, P78352
Chain of DLG4_1, P78352 (P78352 62-152): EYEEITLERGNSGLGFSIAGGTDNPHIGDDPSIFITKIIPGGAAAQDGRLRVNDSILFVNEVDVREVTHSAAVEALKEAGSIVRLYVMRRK

[19] = target: PTPN3, P26045
Chain of PTPN3, P26045 (P26045 505-587): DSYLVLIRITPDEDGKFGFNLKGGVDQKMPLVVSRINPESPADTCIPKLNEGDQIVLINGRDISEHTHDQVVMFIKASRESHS

[20] = target: Inadl_10, Q8NI35
Chain of Inadl_10, Q8NI35 (Q8NI35 1673-1763): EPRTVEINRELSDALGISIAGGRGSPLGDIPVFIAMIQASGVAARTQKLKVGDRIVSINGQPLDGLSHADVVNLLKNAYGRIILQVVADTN

[21] = target: NHERF4_4, Q86UT5
Chain of NHERF4_4, Q86UT5 (Q86UT5 464-550): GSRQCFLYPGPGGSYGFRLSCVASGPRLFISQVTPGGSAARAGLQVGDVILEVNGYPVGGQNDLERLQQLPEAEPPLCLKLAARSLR

[22] = target: LIMK2, P53671
Chain of LIMK2, P53671 (P53671 143-248): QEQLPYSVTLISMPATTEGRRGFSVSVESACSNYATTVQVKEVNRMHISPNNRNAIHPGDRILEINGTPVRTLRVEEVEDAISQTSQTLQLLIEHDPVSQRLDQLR

[23] = target: T8, NHERF3_4, Q5T2W1
[24] = target: T9, GRIP1_5, Q9Y3R0
[25] = target: GORASP2, Q9H8Y8
[26] = target: T10, SNTG1, Q9NSN8
[27] = target: T11, LIN7C, Q9NUP9

pKd [1] | pKd [2] | pKd [3] | pKd [4] | pKd [5] | pKd [6] | pKd [7] | pKd [8] | pKd [9] | pKd [10] | pKd [11] | pKd [12] | pKd [13] | pKd [14] | pKd [15] | pKd [16] | pKd [17] | pKd [18] | pKd [19] | pKd [20] | Binder | also measured
4.69 | below the threshold | 3.66 | below the threshold | below the threshold | below the threshold | 3.76 | below the threshold | below the threshold | 4.34 | 4.52 | below the threshold | below the threshold | below the threshold | below the threshold | below the threshold | 4.23 | 4.5 | 4.52 | below the threshold | NTANRRTTPV [CACNG2, Q9Y698] | pKd [21]: below the threshold; pKd [22]: below the threshold; pKd [23]: 3.5; pKd [24]: below the threshold; pKd [25]: below the threshold; pKd [26]: below the threshold; pKd [27]: below the threshold
4.42 | below the threshold | 4.83 | below the threshold | 4.32 | below the threshold | 3.69 | below the threshold | below the threshold | 4.7 | 4.89 | below the threshold | 4.9 | 4.4 | below the threshold | below the threshold | 3.81 | 4.83 | 4.94 | below the threshold | ARGPPRESEV [FAM110D, Q8TAY7] | pKd [21]: below the threshold; pKd [22]: below the threshold; pKd [23]: below the threshold; pKd [24]: below the threshold; pKd [25]: below the threshold; pKd [26]: 5.23; pKd [27]: 3.67
